Results reported in publication PMC8307404, “Crystal Structure-Guided Design of Bisubstrate Inhibitors and Photoluminescent Probes for Protein Kinases of the PIM Family” (Molecules, 2021).
Square brackets hold non-standard residues; d marks the D form. Peptide text beside a SMILES is read from it. * marks the point of attachment. X3 = O=C(CCCCCNCc1nc2c(sc3cc(Br)cnc32)c(=O)[nH]1)*

What was measured:
LKB1 = target: T1, LKB1 (Homo sapiens, UniProt Q15831); assay: Kinase profiling (radiometric filter-binding); format: biochemical; settings: LKB1, 1 µM inhibitor; read-out: Residual activity, %
T1 sequence (Q15831 1-433): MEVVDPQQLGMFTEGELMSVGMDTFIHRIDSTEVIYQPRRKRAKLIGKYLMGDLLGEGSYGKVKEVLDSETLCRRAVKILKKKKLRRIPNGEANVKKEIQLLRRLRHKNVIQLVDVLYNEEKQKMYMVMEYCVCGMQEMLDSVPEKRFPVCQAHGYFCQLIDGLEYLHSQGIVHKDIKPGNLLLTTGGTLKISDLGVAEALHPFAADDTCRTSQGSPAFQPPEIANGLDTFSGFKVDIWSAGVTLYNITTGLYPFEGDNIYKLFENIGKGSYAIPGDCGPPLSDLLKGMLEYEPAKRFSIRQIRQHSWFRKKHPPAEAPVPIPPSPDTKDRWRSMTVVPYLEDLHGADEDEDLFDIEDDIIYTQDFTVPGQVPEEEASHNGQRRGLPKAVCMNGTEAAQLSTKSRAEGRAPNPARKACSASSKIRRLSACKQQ
T1 sequence (Q7RTN6 1-431 partner): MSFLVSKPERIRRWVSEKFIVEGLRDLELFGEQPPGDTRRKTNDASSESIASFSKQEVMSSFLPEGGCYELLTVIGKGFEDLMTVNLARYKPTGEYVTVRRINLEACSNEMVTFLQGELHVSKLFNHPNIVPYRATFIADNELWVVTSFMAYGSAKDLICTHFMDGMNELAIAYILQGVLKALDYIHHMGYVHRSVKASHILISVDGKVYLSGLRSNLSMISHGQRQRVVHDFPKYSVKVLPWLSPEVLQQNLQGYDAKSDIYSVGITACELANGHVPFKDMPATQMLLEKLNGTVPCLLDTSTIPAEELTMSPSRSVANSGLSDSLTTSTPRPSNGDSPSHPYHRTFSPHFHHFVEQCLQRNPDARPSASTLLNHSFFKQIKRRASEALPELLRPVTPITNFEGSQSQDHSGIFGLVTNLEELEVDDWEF
T1 sequence (Q9Y376 1-341 partner): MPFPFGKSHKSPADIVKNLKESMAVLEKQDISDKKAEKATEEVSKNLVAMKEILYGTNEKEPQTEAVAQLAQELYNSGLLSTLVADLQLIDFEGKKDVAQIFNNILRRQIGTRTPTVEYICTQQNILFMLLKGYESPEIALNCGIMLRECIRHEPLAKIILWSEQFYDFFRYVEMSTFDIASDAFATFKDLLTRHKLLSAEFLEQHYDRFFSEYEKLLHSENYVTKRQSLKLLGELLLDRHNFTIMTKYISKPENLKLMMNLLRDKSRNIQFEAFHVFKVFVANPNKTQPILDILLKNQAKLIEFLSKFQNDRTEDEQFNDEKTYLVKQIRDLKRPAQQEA
Outline: (§1)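 Residual kinase activity, as a percentage of the inhibitor-free control, was measured at 1 µM final compound by radiometric filter binding. Each human enzyme was run with ATP no higher than its own KM.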

TTK = target: T2, TTK (Homo sapiens, UniProt P33981); assay: Kinase profiling (radiometric filter-binding); format: biochemical; settings: 1 µM inhibitor, read-out: Residual activity, %
T2 sequence (P33981 1-857): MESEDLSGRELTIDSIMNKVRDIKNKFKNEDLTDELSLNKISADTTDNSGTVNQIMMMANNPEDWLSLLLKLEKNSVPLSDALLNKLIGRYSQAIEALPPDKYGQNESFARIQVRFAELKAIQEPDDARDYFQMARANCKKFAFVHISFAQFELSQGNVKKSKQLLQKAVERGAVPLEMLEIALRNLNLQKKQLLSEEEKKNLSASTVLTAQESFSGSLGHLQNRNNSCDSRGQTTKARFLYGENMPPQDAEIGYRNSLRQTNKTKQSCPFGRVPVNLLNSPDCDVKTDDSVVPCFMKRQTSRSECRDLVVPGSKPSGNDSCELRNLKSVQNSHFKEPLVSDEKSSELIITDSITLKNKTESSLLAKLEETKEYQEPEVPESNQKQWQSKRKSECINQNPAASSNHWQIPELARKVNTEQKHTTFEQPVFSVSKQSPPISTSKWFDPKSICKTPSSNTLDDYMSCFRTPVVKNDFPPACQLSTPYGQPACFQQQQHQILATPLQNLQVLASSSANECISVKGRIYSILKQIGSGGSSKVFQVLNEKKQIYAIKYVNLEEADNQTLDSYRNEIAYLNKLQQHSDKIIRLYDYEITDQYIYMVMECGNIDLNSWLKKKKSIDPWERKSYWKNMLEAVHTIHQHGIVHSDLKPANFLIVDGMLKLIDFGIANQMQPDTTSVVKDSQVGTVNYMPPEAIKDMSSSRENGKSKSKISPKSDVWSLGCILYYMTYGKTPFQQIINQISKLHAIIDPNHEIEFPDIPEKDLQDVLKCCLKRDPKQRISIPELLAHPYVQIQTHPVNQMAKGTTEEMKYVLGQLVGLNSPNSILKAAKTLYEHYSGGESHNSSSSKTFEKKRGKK
Outline: as §1

PIM2 = PIM2 (Homo sapiens, UniProt Q9P1W9); assay: Binding/displacement assay with FA or TGLI readout; parameters: made in house; settings: mean ± SEM, N = 2
Chain of PIM2 (Q9P1W9 whole entry): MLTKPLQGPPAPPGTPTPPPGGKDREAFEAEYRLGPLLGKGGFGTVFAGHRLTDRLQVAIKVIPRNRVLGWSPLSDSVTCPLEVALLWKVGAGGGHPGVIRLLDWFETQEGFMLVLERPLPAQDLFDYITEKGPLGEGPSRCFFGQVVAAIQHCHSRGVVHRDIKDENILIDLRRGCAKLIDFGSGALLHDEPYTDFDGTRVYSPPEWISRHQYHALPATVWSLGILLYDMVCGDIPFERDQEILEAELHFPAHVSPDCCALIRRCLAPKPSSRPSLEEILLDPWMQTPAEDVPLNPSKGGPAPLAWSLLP
Protocol: (§3) The affinities of the compounds toward the PIM family PKs were determined in a binding/displacement assay with measurement of fluorescence anisotropy (FA) and time-gated luminescence intensity (TGLI) (Table 2). For the initial assessment of the selectivity of compounds, PKAcα was used as the reference basophilic kinase [10].
(§4) Optical FA measurement modules for 5-TAMRA-labeled compounds (ex. 540(20) nm, em. 590(20) nm and 590(20) nm), for Cy5-labeled compounds (ex. 590(50) nm, em. 675(50) nm and 675(50) nm), and optical TGLI measurement modules for ARC-1451 (ex. 330(60) nm, em. 590(50) nm), for ARC-1188 (ex. 330(60) nm, em. 675(50) nm) were used for assays with PHERAstar microplate reader (BMG Labtech; Ortenberg, Germany). TGLI measurements were performed with a delay time of 50 μs and integration of the signal for 150 μs. In each measurement, emission from 200 flashes of excitation radiation was collected. The measurement solutions (20 µL volumes) were prepared in black 384-well low-binding surface microtiter plates (Corning #4514; Kennebunk, ME, USA) and incubated for 20 min at 30 °C before the measurements. The assay buffer contained HEPES hemisodium salt (pH 7.4, 50 mM), NaCl (150 mM), dithiothreitol (5 mM), bovine serum albumin (0.5 mg/mL), and Tween-20 (0.005%). […] 5.04 (GraphPad Software, Inc.) was used for data analysis with FA [32] or TGLI [33] readouts.

PIM3 = PIM3 (Homo sapiens, UniProt Q86V86); assay: Binding/displacement assay with FA or TGLI readout; parameters: made in house; settings: mean ± SEM, N = 2
Protocol: as §3, §4

panel of 140 PKs = assay: Kinase selectivity profiling, panel metrics; format: biochemical, human; settings: 1 µM compound; kinases other than PIM family
Protocol: (§2) Kinase selectivity profiling was performed using the commercial service provided by the MRC PPU International Centre for Kinase Profiling (Dundee, UK) using a radiometric filter-binding assay. Kinases used for analysis were of human origin. The ATP concentration applied for inhibition measurements was at or below the ATP KM value of the particular PK. ARC-3125 and ARC-3126 were screened against 139 PKs, whereas compounds 1, 2, and 8 were screened against 140 PKs. The final total concentration of inhibitors in the selectivity panel was 1 µM. Residual activities were expressed as the percentage of retained activity compared to the control without inhibitor.
From the residual activities, values of the Gini coefficient and hit rate were calculated for each individual compound. The Gini coefficient is a single-value metric whose value for a specific inhibitor depends on the number and origin of the PKs in the panel, but also on concentration of the tested compound [70]. Hit rate is the number of kinases inhibited by over 50%.

PIM family = assay: Kinase profiling (radiometric filter-binding), PIM family; format: biochemical, human; settings: 1 µM compound
Protocol: as §2

Row | SMILES | remaining activity at 1 µM (LKB1) [%] | remaining activity at 1 µM (TTK) [%] | Kd (PIM2) [nM] | Kd (PIM3) [nM] | residual activity of other basophilic kinases in the panel (panel of 140 PKs) | residual activity, PIM family, all isoforms (PIM family)
1 | N=C(N)NCCC[C@@H](NC(=O)CNC(=O)[C@@H](CCCNC(=N)N)NC(=O)[C@@H](CCCNC(=N)N)NC(=O)Cn1cc(CNCc2nc3c(sc4ccc(Br)cc43)c(=O)[nH]2)nn1)C(=O)N[C@H](CCCCN)C(N)=O [Compound 3, BBTP-Amt-(D-Arg)2-Gly-D-Arg-D-Lys-NH2] | 115 ± 13 | 86 ± 9 | 9.9 ± 0.8 | 7 ± 1 |  | 
2 | N=C(N)NCCC[C@@H](NC(=O)CCCCCNCc1nc2c(sc3cc(Br)cnc32)c(=O)[nH]1)C(=O)N[C@H](CCCNC(=N)N)C(=O)N[C@H](CCCNC(=N)N)C(=O)N[C@H](CCCNC(=N)N)C(=O)N[C@H](CCCNC(=N)N)C(=O)N[C@H](CCCNC(=N)N)C(=O)N[C@H](CCCCN)C(N)=O [ARC-3126, BPTP-Ahx-(D-Arg)6-D-Lys-NH2] (X3-[dR][dR][dR][dR][dR][dR][dK]-NH2) | 114 ± 11 | 110 ± 4 | 2.9 ± 0.5 | 2 ± 0.5 |  | 
3 | CN(C)c1ccc2c(c1)Oc1cc(N(C)C)ccc1C21OC(=O)c2cc(C(=O)NCCCC[C@@H](NC(=O)[C@@H](CCCNC(=N)N)NC(=O)CNC(=O)[C@@H](CCCNC(=N)N)NC(=O)[C@@H](CCCNC(=N)N)NC(=O)CCCCc3cn(Cc4nc5c(sc6ccc(Br)cc65)c(=O)[nH]4)nn3)C(N)=O)ccc21 [Compound 8, BBTP-Tap-(D-Arg)2-Gly-D-Arg-[D-Lys(5-TAMRA)]-NH2] |  |  | 157 ± 39 | 15.7 ± 3 |  | 
4 | N=C(N)NCCC[C@@H](NC(=O)CCCCCNC(=O)Cn1cnc2c(I)c(I)c(I)c(I)c21)C(=O)N[C@H](CCCNC(=N)N)C(=O)N[C@H](CCCNC(=N)N)C(=O)N[C@H](CCCNC(=N)N)C(=O)N[C@H](CCCNC(=N)N)C(=O)N[C@H](CCCNC(=N)N)C(=O)N[C@H](CCCCN)C(N)=O [ARC-3125, TIBI-CH2-C(=O)-Ahx-(D-Arg)6-D-Lys-NH2] | 49 ± 28 | 45 ± 1 |  |  |  | 
5 | N=C(N)NCCC[C@@H](NC(=O)CNC(=O)[C@@H](CCCNC(=N)N)NC(=O)[C@@H](CCCNC(=N)N)NC(=O)CCCCCCCNCc1nc2c(sc3cc(Br)cnc32)c(=O)[nH]1)C(=O)N[C@H](CCCCN)C(N)=O [Compound 1, BPTP-Aoc-(D-Arg)2-Gly-D-Arg-D-Lys-NH2] | 107 ± 1 | 113 | 64 ± 8 | 5.2 ± 1 | above 81% | 
6 | N=C(N)NCCC[C@@H](NC(=O)CNC(=O)[C@@H](CCCNC(=N)N)NC(=O)[C@@H](CCCNC(=N)N)NC(=O)CCCCCCCNCc1nc2c(sc3ccc(Br)cc32)c(=O)[nH]1)C(=O)N[C@H](CCCCN)C(N)=O [Compound 2, BBTP-Aoc-(D-Arg)2-Gly-D-Arg-D-Lys-NH2] | 118 ± 4 | 94 ± 15 | 3.8 ± 0.2 | 2 ± 0.4 |  | 4–7%
